First the molecules themselves.
B1: Chromodomain-helicase-DNA-binding protein 5, residues 338 to 390; numbered along this chain, Q8TDI0 (parent)
chain: YETDHQDYCEVCQQGGEIILCDTCPRAYHLVCLDPELEKAPEGKWSCPHCEKE
B2: Membrane-associated guanylate kinase, WW and PDZ domain-containing protein 1, residues 352 to 401; numbered along this chain, Q96QZ7 (parent)
chain: TEELDSELELPAGWEKIEDPVYGIYYVDHINRKTQYENPVLEAKRKKQLE

± gives the uncertainty stated by the source.

The first data set covers variants of B1. As to the kind of experiment: abundance fitness (aPCA) (normalised: wild type 0, dead -1); higher = more abundant; growth selection in yeast, the domain comes from the species named. Conditions: Homo sapiens.
On to E10R, for which the abundance fitness worked out at 0.043 ± 0.11.

Take E10C: the abundance fitness is -0.001 ± 0.17.

In the case of E36N, the abundance fitness is -0.166 ± 0.19.

For the variant E36W, the abundance fitness was -0.321 ± 0.14.

As for C24M, the abundance fitness is -0.772 ± 0.2.

With C24Y, the abundance fitness is -0.784 ± 0.16.

For the variant C24K, the abundance fitness was -0.917 ± 0.23.

C24L: the abundance fitness is -0.682 ± 0.13.

With C24V, the abundance fitness is -0.979 ± 0.16.

As for L33E, the abundance fitness is -0.414 ± 0.11.

Consider L33F, for which the abundance fitness was -0.013 ± 0.18.

For S46A, the abundance fitness was -0.11 ± 0.12.

As for S46R, the abundance fitness was -0.143 ± 0.094.

S46Y: the abundance fitness was -0.335 ± 0.16.

Turning to S46H, the abundance fitness was -0.203 ± 0.22.

In the case of S46T, the abundance fitness was found to be 0.024 ± 0.15.

Turning to S46W, the abundance fitness was -0.14 ± 0.13.

Turning to K52C, the abundance fitness is -0.381 ± 0.23.

For K52M, the abundance fitness worked out at 0.083 ± 0.18.

Turning to I19C, the abundance fitness was -0.137 ± 0.16.

As for I19N, the abundance fitness came to 0.161 ± 0.16.

In the case of V11G, the abundance fitness is 0.376 ± 0.094.

Turning to V11C, the abundance fitness turned out to be 0.179 ± 0.17.

Consider D22R, for which the abundance fitness was -0.067 ± 0.1.

For D22K, the abundance fitness is -0.171 ± 0.19.

Consider D22T, for which the abundance fitness turned out to be 0.187 ± 0.17.

Take Y8T: the abundance fitness is -0.088 ± 0.14.

Turning to E17F, the abundance fitness was -0.213 ± 0.18.

For the variant E17R, the abundance fitness was -0.189 ± 0.1.

For E17Q, the abundance fitness is -0.377 ± 0.21.

Consider E17L, for which the abundance fitness was -0.096 ± 0.12.

For the variant E17G, the abundance fitness was -0.07 ± 0.09.

G43V: the abundance fitness came to 0.029 ± 0.11.

With G43N, the abundance fitness was found to be 0.23 ± 0.15.

On to G43H, for which the abundance fitness worked out at 0.166 ± 0.16.

As to G43L, the abundance fitness was -0.096 ± 0.11.

Consider G43Y, for which the abundance fitness is -0.323 ± 0.18.

G43K: the abundance fitness is 0.057 ± 0.17.

Turning to C47F, the abundance fitness was -0.765 ± 0.28.

With C47S, the abundance fitness is -0.609 ± 0.12.

For Q14W, the abundance fitness was -0.237 ± 0.17.

For the variant Q14Y, the abundance fitness is -0.001 ± 0.22.

In the case of Q14I, the abundance fitness is -0.385 ± 0.2.

For Q14H, the abundance fitness is -0.105 ± 0.17.

For the variant Q14D, the abundance fitness is -0.004 ± 0.17.

Take L20D: the abundance fitness stood at 0.127 ± 0.17.

Y1R: the abundance fitness is 0.063 ± 0.47.

Turning to I18Q, the abundance fitness came to 0.28 ± 0.18.

With I18W, the abundance fitness is -0.02 ± 0.12.

On to I18F, for which the abundance fitness is -0.058 ± 0.16.

For the variant C12H, the abundance fitness was -0.539 ± 0.21.

Turning to C12E, the abundance fitness is -0.866 ± 0.14.

With C12R, the abundance fitness is -1 ± 0.12.

In the case of H5R, the abundance fitness worked out at 0.192 ± 0.089.

For H5K, the abundance fitness was 0.021 ± 0.14.

For the variant H5D, the abundance fitness was -0.81 ± 0.22.

Regarding H5F, the abundance fitness was -0.144 ± 0.3.

Take H5M: the abundance fitness was 0.497 ± 0.12.

For H5V, the abundance fitness stood at 0.464 ± 0.088.

With H5W, the abundance fitness was -0.038 ± 0.1.

Consider C32E, for which the abundance fitness was -0.52 ± 0.16.

Consider C32K, for which the abundance fitness is -1.03 ± 0.26.

C32R: the abundance fitness was -0.94 ± 0.13.

As to C32I, the abundance fitness was -0.786 ± 0.3.

Consider A40S, for which the abundance fitness worked out at 0.024 ± 0.11.

As for A40C, the abundance fitness is -0.396 ± 0.16.

Regarding Q13I, the abundance fitness was -0.204 ± 0.17.

As to Q13D, the abundance fitness was -0.191 ± 0.13.

Take Q13L: the abundance fitness was -0.109 ± 0.091.

Consider W45A, for which the abundance fitness is -0.105 ± 0.14.

Consider W45F, for which the abundance fitness was -0.05 ± 0.17.

For E42L, the abundance fitness was -0.05 ± 0.1.

Regarding E42V, the abundance fitness is 0.068 ± 0.11.

In the case of E42H, the abundance fitness was -0.068 ± 0.23.

For E42P, the abundance fitness is -0.184 ± 0.13.

With E53V, the abundance fitness is -0.29 ± 0.18.

In the case of P35I, the abundance fitness is -0.209 ± 0.21.

In the case of P35K, the abundance fitness stood at 0.082 ± 0.15.

Consider P41I, for which the abundance fitness turned out to be 0.117 ± 0.21.

Consider P41A, for which the abundance fitness turned out to be 0.058 ± 0.11.

In the case of P41N, the abundance fitness stood at 0.18 ± 0.19.

Consider E38M, for which the abundance fitness is 0.042 ± 0.16.

With E38A, the abundance fitness is -0.024 ± 0.13.

As to E2I, the abundance fitness amounted to 0.814 ± 0.25.

Turning to E2N, the abundance fitness stood at 0.405 ± 0.28.

In the case of C9T, the abundance fitness was -0.643 ± 0.13.

Take L30Q: the abundance fitness amounted to 0.107 ± 0.16.

Take L30G: the abundance fitness is 0.092 ± 0.096.

L30C: the abundance fitness was -0.096 ± 0.18.

As to L30P, the abundance fitness was -0.414 ± 0.2.

For G15D, the abundance fitness is -0.167 ± 0.18.

On to G15I, for which the abundance fitness is -0.414 ± 0.39.

For G15Q, the abundance fitness is -0.103 ± 0.15.

As to G15P, the abundance fitness was -0.553 ± 0.19.

Take K39Q: the abundance fitness was -0.232 ± 0.3.

Consider K39M, for which the abundance fitness is 0.191 ± 0.2.

On to K39P, for which the abundance fitness was -0.091 ± 0.19.

In the case of K39I, the abundance fitness was -0.045 ± 0.24.

For the variant K39L, the abundance fitness is -0.002 ± 0.14.

In the case of C21F, the abundance fitness was -1.22 ± 0.28.

For R26M, the abundance fitness is 0.144 ± 0.14.

As to R26Q, the abundance fitness came to 0.205 ± 0.16.

Regarding Y28A, the abundance fitness is -0.085 ± 0.14.

As to Y28L, the abundance fitness is -0.148 ± 0.13.

For the variant Y28R, the abundance fitness amounted to 0.023 ± 0.096.

With Y28H, the abundance fitness is -0.158 ± 0.23.

Regarding D4P, the abundance fitness is -0.049 ± 0.14.

Take D4G: the abundance fitness amounted to 0.001 ± 0.083.

In the case of D4L, the abundance fitness amounted to 0.095 ± 0.095.

Regarding T23K, the abundance fitness was -0.457 ± 0.22.

Turning to E51D, the abundance fitness was -0.114 ± 0.15.

On to E51Q, for which the abundance fitness was -0.005 ± 0.15.

For the variant E51S, the abundance fitness is -0.365 ± 0.11.

In the case of H29S, the abundance fitness is -0.882 ± 0.15.

Take H29Y: the abundance fitness was -0.719 ± 0.18.

For H29Q, the abundance fitness is -0.887 ± 0.2.

In the case of H29G, the abundance fitness was -0.744 ± 0.099.

Take H29P: the abundance fitness is -0.672 ± 0.16.

In the case of L37T, the abundance fitness was determined as 0.101 ± 0.13.

L37K: the abundance fitness was -0.04 ± 0.2.

L37E: the abundance fitness was -0.566 ± 0.18.

Regarding L37H, the abundance fitness was -0.069 ± 0.33.

Turning to C50G, the abundance fitness was -0.55 ± 0.1.

Consider C50W, for which the abundance fitness is -0.718 ± 0.18.

In the case of C50H, the abundance fitness came to 0.231 ± 0.18.

Turning to C50Q, the abundance fitness was -0.365 ± 0.17.

Regarding A27F, the abundance fitness is -0.027 ± 0.14.

A27C: the abundance fitness is -0.093 ± 0.18.

Consider A27K, for which the abundance fitness is -0.242 ± 0.21.

Consider A27H, for which the abundance fitness is -0.097 ± 0.18.

As to A27P, the abundance fitness is -0.231 ± 0.14.

For the variant D34A, the abundance fitness worked out at 0.052 ± 0.12.

Turning to D34E, the abundance fitness amounted to 0.266 ± 0.15.

As for D7A, the abundance fitness is -0.045 ± 0.15.

As for K44T, the abundance fitness is 0 ± 0.13.

Consider V31R, for which the abundance fitness was -0.27 ± 0.11.

On to G16Q, for which the abundance fitness was 0.183 ± 0.23.

Consider G16Y, for which the abundance fitness was determined as 0.193 ± 0.2.

In the case of H49A, the abundance fitness was -0.011 ± 0.2.

As to H49Y, the abundance fitness is -0.042 ± 0.2.

With T3Q, the abundance fitness was found to be 0.05 ± 0.17.

As for P48Y, the abundance fitness was -0.022 ± 0.28.

For P48F, the abundance fitness worked out at 0.124 ± 0.23.

Variants of B2 are the subject of the next data set. The description is as above. Conditions: Homo sapiens.
On to T1R, for which the abundance fitness was found to be 0.104 ± 0.18.

On to T1E, for which the abundance fitness amounted to 0.069 ± 0.11.

Consider T1S, for which the abundance fitness was found to be 0.004 ± 0.078.

As for T1Y, the abundance fitness was -0.155 ± 0.074.

T1I: the abundance fitness is -0.379 ± 0.27.

Turning to T1M, the abundance fitness was -0.074 ± 0.16.

As for T1L, the abundance fitness is -0.128 ± 0.047.

Consider T1C, for which the abundance fitness is -0.35 ± 0.26.

Take T1G: the abundance fitness is -0.118 ± 0.056.

For T1V, the abundance fitness was -0.098 ± 0.089.

Consider T1A, for which the abundance fitness is -0.474 ± 0.22.

With T1W, the abundance fitness was -0.351 ± 0.2.

With E2G, the abundance fitness is -0.086 ± 0.057.

E2M: the abundance fitness is -0.265 ± 0.14.

On to E2H, for which the abundance fitness is -0.523 ± 0.24.

With E2Q, the abundance fitness was -0.145 ± 0.12.

As for E2A, the abundance fitness is -0.185 ± 0.052.

As for E2K, the abundance fitness is -0.214 ± 0.17.

E2R: the abundance fitness is -0.095 ± 0.057.

For the variant E2N, the abundance fitness stood at 0.372 ± 0.12.

As for E2D, the abundance fitness was -0.314 ± 0.1.

With E2C, the abundance fitness is 0.319 ± 0.12.

With E2P, the abundance fitness is -0.266 ± 0.059.

As to E2L, the abundance fitness is -0.35 ± 0.15.

Source of the values: the Human Domainome abundance scans (Beltran et al. 2025).
